Experimental data: PMC9433092, “Closely related type II-C Cas9 orthologs recognize diverse PAMs”

T1: Nsp2Cas9 (Neisseria sp. WF04, UniProt A0A4Y9GBC9)
T1 sequence: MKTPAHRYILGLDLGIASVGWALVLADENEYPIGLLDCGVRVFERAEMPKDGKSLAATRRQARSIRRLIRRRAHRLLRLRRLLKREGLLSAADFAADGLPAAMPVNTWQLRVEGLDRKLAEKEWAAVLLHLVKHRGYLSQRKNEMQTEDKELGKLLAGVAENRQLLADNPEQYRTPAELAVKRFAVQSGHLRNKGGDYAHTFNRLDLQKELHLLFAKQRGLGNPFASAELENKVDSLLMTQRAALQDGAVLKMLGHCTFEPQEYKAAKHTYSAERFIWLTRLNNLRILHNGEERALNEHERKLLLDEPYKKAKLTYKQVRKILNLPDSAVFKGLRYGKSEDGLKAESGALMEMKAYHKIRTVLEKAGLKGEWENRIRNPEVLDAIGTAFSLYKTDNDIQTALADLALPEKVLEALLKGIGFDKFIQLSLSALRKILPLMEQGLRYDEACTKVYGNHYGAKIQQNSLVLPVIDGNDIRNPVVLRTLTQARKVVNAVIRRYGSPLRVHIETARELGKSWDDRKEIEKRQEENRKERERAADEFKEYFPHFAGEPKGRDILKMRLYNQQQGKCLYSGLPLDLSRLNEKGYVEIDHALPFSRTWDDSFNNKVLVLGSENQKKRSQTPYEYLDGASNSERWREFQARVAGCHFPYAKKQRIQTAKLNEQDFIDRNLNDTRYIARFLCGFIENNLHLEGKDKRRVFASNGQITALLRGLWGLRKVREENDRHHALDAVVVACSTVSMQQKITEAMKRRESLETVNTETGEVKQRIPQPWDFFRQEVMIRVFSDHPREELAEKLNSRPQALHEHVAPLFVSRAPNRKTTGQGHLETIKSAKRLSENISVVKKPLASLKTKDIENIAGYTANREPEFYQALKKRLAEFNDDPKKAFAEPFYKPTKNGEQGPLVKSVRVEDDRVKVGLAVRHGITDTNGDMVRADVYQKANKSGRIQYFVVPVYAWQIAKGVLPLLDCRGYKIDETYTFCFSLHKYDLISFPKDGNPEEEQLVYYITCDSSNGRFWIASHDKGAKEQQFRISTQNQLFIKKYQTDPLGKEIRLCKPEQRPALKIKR

B1: AAVS1 A46 (mixed)
RNA: GAAGCCUGAGCGCCUCUCCUGGGGUUGUAGCUCCCUUUCUCAUUUCGGAAACGAAAUGAGAACCGUUGCUACAAUAAGGCCGUCUGAAAAGAUGUGCCGCAACGCUCUGCCCCUUAAAGCUUCUGCUUUAAGGGGCAUCGUUUAUUUUUUU
DNA 1: AAGCCTGAGCGCCTCTCCTGGGCTTGCCAA
DNA 2: TTGGCAAGCCCAGGAGAGGCGCTCAGGCTT
B2: AAVS1 A30 (mixed)
RNA: GAGGGAGGAGAGAUGCCCGGAGAGUUGUAGCUCCCUUUCUCAUUUCGGAAACGAAAUGAGAACCGUUGCUACAAUAAGGCCGUCUGAAAAGAUGUGCCGCAACGCUCUGCCCCUUAAAGCUUCUGCUUUAAGGGGCAUCGUUUAUUUUUUU
DNA 1: AGGGAGGAGAGATGCCCGGAGAGGACCCAG
DNA 2: CTGGGTCCTCTCCGGGCATCTCTCCTCCCT
B3: AAVS1 A41 (mixed)
RNA: GAGGACUGCAUGGGUCAGCACAGGUUGUAGCUCCCUUUCUCAUUUCGGAAACGAAAUGAGAACCGUUGCUACAAUAAGGCCGUCUGAAAAGAUGUGCCGCAACGCUCUGCCCCUUAAAGCUUCUGCUUUAAGGGGCAUCGUUUAUUUUUUU
DNA 1: AGGACTGCATGGGTCAGCACAGGCTGCCAA
DNA 2: TTGGCAGCCTGTGCTGACCCATGCAGTCCT
B4: AAVS1 A2 (mixed)
RNA: GUCAGCAUAGGGUGGCAAAGCCCGUUGUAGCUCCCUUUCUCAUUUCGGAAACGAAAUGAGAACCGUUGCUACAAUAAGGCCGUCUGAAAAGAUGUGCCGCAACGCUCUGCCCCUUAAAGCUUCUGCUUUAAGGGGCAUCGUUUAUUUUUUU
DNA 1: TCAGCATAGGGTGGCAAAGCCCAGGGCC
DNA 2: GGCCCTGGGCTTTGCCACCCTATGCTGA
B5: AAVS1 A10 (mixed)
RNA: GGGUCUGAGGGUGGAGGGACUGGUUGUAGCUCCCUUUCUCAUUUCGGAAACGAAAUGAGAACCGUUGCUACAAUAAGGCCGUCUGAAAAGAUGUGCCGCAACGCUCUGCCCCUUAAAGCUUCUGCUUUAAGGGGCAUCGUUUAUUUUUUU
DNA 1: GGGTCTGAGGGTGGAGGGACTGGGGGCC
DNA 2: GGCCCCCAGTCCCTCCACCCTCAGACCC
B6: AAVS1 A3 (mixed)
RNA: GCAGCGCAAAGUGACAAUGGCCGUUGUAGCUCCCUUUCUCAUUUCGGAAACGAAAUGAGAACCGUUGCUACAAUAAGGCCGUCUGAAAAGAUGUGCCGCAACGCUCUGCCCCUUAAAGCUUCUGCUUUAAGGGGCAUCGUUUAUUUUUUU
DNA 1: GCAGCGCAAAGTGACAATGGCCAGGGCC
DNA 2: GGCCCTGGCCATTGTCACTTTGCGCTGC
B7: AAVS1 A7 (mixed)
RNA: GUCUGUCCCCUCCACCCCACAGUGUUGUAGCUCCCUUUCUCAUUUCGGAAACGAAAUGAGAACCGUUGCUACAAUAAGGCCGUCUGAAAAGAUGUGCCGCAACGCUCUGCCCCUUAAAGCUUCUGCUUUAAGGGGCAUCGUUUAUUUUUUU
DNA 1: TCTGTCCCCTCCACCCCACAGTGGGGCC
DNA 2: GGCCCCACTGTGGGGTGGAGGGGACAGA
B8: AAVS1 A33 (mixed)
RNA: GUGAGAAUGGUGCGUCCUAGGUGGUUGUAGCUCCCUUUCUCAUUUCGGAAACGAAAUGAGAACCGUUGCUACAAUAAGGCCGUCUGAAAAGAUGUGCCGCAACGCUCUGCCCCUUAAAGCUUCUGCUUUAAGGGGCAUCGUUUAUUUUUUU
DNA 1: TGAGAATGGTGCGTCCTAGGTGTTCACCAG
DNA 2: CTGGTGAACACCTAGGACGCACCATTCTCA
B9: AAVS1 A4 (mixed)
RNA: GCUCUGACCUGCAUUCUCUCCCCGUUGUAGCUCCCUUUCUCAUUUCGGAAACGAAAUGAGAACCGUUGCUACAAUAAGGCCGUCUGAAAAGAUGUGCCGCAACGCUCUGCCCCUUAAAGCUUCUGCUUUAAGGGGCAUCGUUUAUUUUUUU
DNA 1: CTCTGACCTGCATTCTCTCCCCTGGGCC
DNA 2: GGCCCAGGGGAGAGAATGCAGGTCAGAG

Target: T1, Nsp2Cas9
Assay: HEK293T cells
Details: tags: NLS and HA tags, kept

Binder	indel frequency
B1	14.9 % indels
B2	12.9 % indels
B3	10.8 % indels
B4	14.1 % indels
B5	30.1 % indels
B6	7.81 % indels
B7	17.4 % indels
B8	17.1 % indels
B9	6.61 % indels
